Data set [1] addresses T1, NagR-DBD (Bacillus subtilis, UniProt O34817 1-75).
T1 sequence: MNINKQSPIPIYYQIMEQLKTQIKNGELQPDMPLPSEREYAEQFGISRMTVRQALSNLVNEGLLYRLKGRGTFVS
As to the kind of experiment: SPR; SPR: HBS-EP pH 7.4, 25 C, biotinylated DNA on SA chip; DNA for EMSA/SEC annealed in 20 mM Tris-HCl pH 7.5, 150 mM NaCl; crystal 4WWC: 0.1 M Bis-Tris pH 6.5, 25% PEG 3500, 292 K. The note with it: protein: recombinant; tags: N-terminal His6 with thrombin site (pET15b); chain copies: 2; label: 5'-biotin on strand 1; blunt; one T:C mismatch as printed at position 3 of strand 1 (possible misprint). Background: SPR reads the build-up and loss of mass on a sensor chip optically.

The target of data set [2] is T2, NagR (YvoA) (Bacillus subtilis, UniProt O34817 1-243).
T2 sequence: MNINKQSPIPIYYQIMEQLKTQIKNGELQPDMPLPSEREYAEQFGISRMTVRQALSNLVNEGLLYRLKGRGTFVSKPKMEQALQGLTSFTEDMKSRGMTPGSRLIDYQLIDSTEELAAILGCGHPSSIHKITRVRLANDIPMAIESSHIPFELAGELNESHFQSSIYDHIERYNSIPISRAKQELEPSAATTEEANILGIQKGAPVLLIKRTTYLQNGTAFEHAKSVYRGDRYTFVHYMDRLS
As to the kind of experiment: SPR; 1:1 steady state; SPR: HBS-EP pH 7.4, 25 C, biotinylated DNA on SA chip; DNA for EMSA/SEC annealed in 20 mM Tris-HCl pH 7.5, 150 mM NaCl; crystal 4WWC: 0.1 M Bis-Tris pH 6.5, 25% PEG 3500, 292 K. The note with it: protein: recombinant, tags: pET15b template, chain copies: 2, label: 5'-biotin on strand 1, blunt.

Data set [3] has as its target T1, NagR-DBD. As to the kind of experiment: EMSA; 2 uM DNA; higher oligomers by bridging of fragments; SPR: HBS-EP pH 7.4, 25 C, biotinylated DNA on SA chip; DNA for EMSA/SEC annealed in 20 mM Tris-HCl pH 7.5, 150 mM NaCl; crystal 4WWC: 0.1 M Bis-Tris pH 6.5, 25% PEG 3500, 292 K. Particulars: protein: recombinant; tags: N-terminal His6 with thrombin site (pET15b); chain copies: 2; 3' overhang 1 nt (T) on each strand; self-complementary, 2 copies.

The target of data set [4] is T1, NagR-DBD. As to the kind of experiment: SEC; 3 uM DNA; SPR: HBS-EP pH 7.4, 25 C, biotinylated DNA on SA chip; DNA for EMSA/SEC annealed in 20 mM Tris-HCl pH 7.5, 150 mM NaCl; crystal 4WWC: 0.1 M Bis-Tris pH 6.5, 25% PEG 3500, 292 K. Particulars: protein: recombinant; tags: N-terminal His6 with thrombin site (pET15b); chain copies: 2; 3' overhang 1 nt (T) on each strand; self-complementary, 2 copies. On the technique in general: SEC sorts molecules by how far they enter the pores of the column.

Data set [5] deals with T2, NagR (YvoA). The data set is described as above. The note with it: protein: recombinant; tags: pET15b template; chain copies: 2; 3' overhang 1 nt (T) on each strand; self-complementary, 2 copies.
The target in data set [6] is T1, NagR-DBD. As to the kind of experiment: SPR; KD1 of two-step model, steady state; SPR: HBS-EP pH 7.4, 25 C, biotinylated DNA on SA chip; DNA for EMSA/SEC annealed in 20 mM Tris-HCl pH 7.5, 150 mM NaCl; crystal 4WWC: 0.1 M Bis-Tris pH 6.5, 25% PEG 3500, 292 K. The note with it: protein: recombinant; tags: N-terminal His6 with thrombin site (pET15b); chain copies: 2; label: 5'-biotin on strand 1; blunt.

For data set [7], the target named is T2, NagR (YvoA). Put plainly: SPR; kinetic 1:1 fit; SPR: HBS-EP pH 7.4, 25 C, biotinylated DNA on SA chip; DNA for EMSA/SEC annealed in 20 mM Tris-HCl pH 7.5, 150 mM NaCl; crystal 4WWC: 0.1 M Bis-Tris pH 6.5, 25% PEG 3500, 292 K. Particulars: protein: recombinant; tags: pET15b template; chain copies: 2; label: 5'-biotin on strand 1; blunt.
The target in data set [8] is T1, NagR-DBD. Put plainly: SPR; 1:1 steady state; SPR: HBS-EP pH 7.4, 25 C, biotinylated DNA on SA chip; DNA for EMSA/SEC annealed in 20 mM Tris-HCl pH 7.5, 150 mM NaCl; crystal 4WWC: 0.1 M Bis-Tris pH 6.5, 25% PEG 3500, 292 K. Particulars: protein: recombinant; tags: N-terminal His6 with thrombin site (pET15b); chain copies: 2; label: 5'-biotin on strand 1; blunt.
Data set [9] addresses T2, NagR (YvoA). As to the kind of experiment: X-ray crystallography; effector-free; 2.9 A; SPR: HBS-EP pH 7.4, 25 C, biotinylated DNA on SA chip; DNA for EMSA/SEC annealed in 20 mM Tris-HCl pH 7.5, 150 mM NaCl; crystal 4WWC: 0.1 M Bis-Tris pH 6.5, 25% PEG 3500, 292 K. Particulars: protein: recombinant; tags: pET15b template; chain copies: 2; 3' overhang 1 nt (G) on each strand; self-complementary, 2 copies. (A gel shift assay detects complexes by their altered migration in electrophoresis.)

Data set [10] concerns the molecule itself. As to the kind of experiment: crystal structure; full-length NagR co-crystallised with 10 mM GlcN-6-P or GlcNAc-6-P; sitting drop, 292 K; isomorphous crystals, space group R32:H; one homodimer in the asymmetric unit.

The values below come from publication PMC4333415, “Structural insight into operator dre-sites recognition and effector binding in the GntR/HutC transcription regulator NagR” (Nucleic Acids Research, 2015).

B1: 26mer control dsDNA (random design) (dsDNA)
DNA 1: AATCATTTATGGCATAGGCAACAAGT
DNA 2: ACTTGTTGCCTATGCCATAAATGCTT
For orientation: Kd means the concentration at which binding is half-saturated. In the case of B1, the binding result in the data set with NagR-DBD [1] is given as “no binding”. Moreover, the Kd with NagR (YvoA) [2] (one T:C mismatch as printed at position 3 of strand 1 (possible misprint)) amounted to 306 ± 6.3 nM.

B2: 15mer palindromic dsDNA (shifted motif) (dsDNA)
DNA 1: GACCACATGTGGTCT
DNA 2: GACCACATGTGGTCT
Regarding B2, the binding result in the data set with NagR-DBD [3] is on record as “binds”.

B3: 26mer control dsDNA (derived from nagA gene) (dsDNA)
DNA 1: GCAGAGAGTCTTCTTATTAAAGACAT
DNA 2: ATGTCTTTAATAAGAAGACTCTCTGC
For B3, the equilibrium dissociation constant (Kd) with NagR (YvoA) [2] amounted to 127 ± 4.2 nM.

B4: 15mer palindromic dsDNA (dsDNA)
DNA 1: GTGGTCTAGACCACT
DNA 2: GTGGTCTAGACCACT
On to B4, for which the binding result with NagR-DBD [4] and with NagR (YvoA) [5] was “binds” in each case.

B5: 26mer palindromic dsDNA (dsDNA)
DNA 1: GCTCAGGTGGTCTAGACCACTAGTCT
DNA 2: AGACTAGTGGTCTAGACCACCTGAGC
Regarding B5, the Kd with NagR-DBD [6] amounted to 14.5 ± 3.3 nM; in the data set with NagR (YvoA) [7], 0.0279 ± 0.0067 nM.

B6: 26mer native nagAB dsDNA (dsDNA)
DNA 1: GCTCAGCTGGTCTAGATCACTAGTCT
DNA 2: AGACTAGTGATCTAGACCAGCTGAGC
In the case of B6, the Kd with NagR (YvoA) [7] is 0.0192 ± 0.0151 nM; in the data set with NagR-DBD [8], 122 ± 7.6 nM.

B7: 19mer palindromic dsDNA (dsDNA)
DNA 1: CAGTGGTCTAGACCACTGG
DNA 2: CAGTGGTCTAGACCACTGG
Regarding B7, the binding result in the data set with NagR (YvoA) [9] is listed as “binds”.

B8: NagR (full-length, wild-type) from Bacillus subtilis (natural protein, UniProt O34817 1-243, looked up)
chain: T2 sequence
notes: NagR (formerly YvoA), GntR/HutC family transcription repressor of Bacillus subtilis, full length; The nagR gene stood in a pET15b vector; also called YvoA; full-length NagR
By stoichiometry N is commonly meant a count of units in the complex or per binding partner. For B8, the “stoichiometry N” value in data set [10] was determined as 2.
